Results published in article PMC8000184, “Structural Insights into a Bifunctional Peptide Methionine Sulfoxide Reductase MsrA/B Fusion Protein from Helicobacter pylori” (Antioxidants, 2021).

Tests used:
[1] = tested on: CN(C)c1ccc(N=Nc2ccc(S(=O)(=O)N[C@@H](CC[S@+](C)[O-])C(=O)O)cc2)cc1; experiment: DTT-dependent HPLC assay of dabsyl-Met; assay type: biochemical, Helicobacter pylori; details: 20 mM DTT, 50 mM sodium phosphate pH 7.5, 50 mM NaCl, 37 °C, Met-S-O, methods dabsyl-Met-S-O, MsrA site
[2] = tested on: CN(C)c1ccc(N=Nc2ccc(S(=O)(=O)N[C@@H](CC[S@@+](C)[O-])C(=O)O)cc2)cc1; experiment: DTT-dependent HPLC assay of dabsyl-Met; assay type: biochemical, Helicobacter pylori; details: 20 mM DTT, 50 mM sodium phosphate pH 7.5, 50 mM NaCl, 37 °C, Met-R-O, methods dabsyl-Met-R-O, MsrB site

Substance: HpMsrAB (WT) (Helicobacter pylori 26695)
- Km [1]: 170 ± 60 µM
- kcat [1]: 0.17 ± 0.0217 s⁻¹
- kcat/Km [1]: 1000 ± 117 M⁻¹ s⁻¹
- Km [2]: 50 ± 20 µM
- kcat [2]: 0.157 ± 0.00667 s⁻¹
- kcat/Km [2]: 3130 ± 133 M⁻¹ s⁻¹
